The target in the assay is PEX5 TPR domain (C-terminal cargo-binding TPR domain of human PEX5L) (human, UniProt P50542-1 315-639). As to the kind of experiment: fluorescence polarisation. A general note: Polarisation of emitted light reports the rotation of a fluorescent probe.

Primed or numbered codes have the meaning given here. No end group written: not given here. FITC′ = fluorescein isothiocyanate

B1: N-terminal FITC conjugated SAPKIPSWQIPVKSPSPS PEX14 peptide (peptide)
peptide: {FITC′}-SAPKIPSWQIPVKSPSPS
The term Kd denotes a measure of binding affinity in units of concentration. A lower Kd goes with higher affinity. B1 had a Kd of 250 µM.

These data come from doi:10.1101/2023.08.08.552478 (bioRxiv, 2023).
